Measurements taken from patent publication US7374920B2, “Ginkgo biloba levopimaradiene synthase” (priority 2001, dated 2008).
“Also recorded” adds a separate entry of the source.

Assays:
[1] = in vitro enzymatic assay of levopimaradiene synthase constructs expressed in E. coli BL21(DE3); format: biochemical, Escherichia coli
Description: The desired plasmids were prepared by ligating the mutated gene insert into the similarly digested vectors pET32c(+) (Novagen; Madison, Wis.) and pRS426GAL (Hua, 2000), a multiple copy yeast expression vector. These plasmids was expressed in E. coli BL21(DE3) (Novagen; Madison, Wis.). E. coli cells were grown in Luria-Bertani medium supplemented with 100 μg/mL ampicillin at 37° C. with shaking to OD600 ˜0.6. The following parameters were tested: isopropyl 1-thio-β-D-galactopyranoside (IPTG) concentration (50, 100, 250, 500, and 1000 μM); and temperature and time (20° C. for 2, 3, 4, 6, 21 hours, 22° C. for 6, 8, 16, 19, 22, 45 hours, and 30° C. for 3, 6 hours). The following assay conditions were tested to obtain maximum diterpene product yield: 30 mM HEPES (N-2-hydroxyethylpiperazine-N′-[…]), pH 6.9, 7.2, 7.6, 8.0; 30 mM Tris (tris(hydroxymethyl)aminomethane hydrochloride), pH 7.4, 7.8, 8.2; 1, 5, 10% glycerol; 1, 3, 5, 10, 20 mM DTT (dithiothreitol); 20 mM β-mercaptoethanol; 2, 5, 8% Triton X-100; 5% Tween 80; 0, 2, 7.5, 20, 50 mM MgCl2; 0, 30, 500, 1000 μM MnCl2; 2, 10, 13.3, 20, 40, 80, 200 μM GGDP; and 23° C. and 32° C. assay temperatures.
Optimal soluble protein production and diterpene yield were obtained with the following conditions. Cell cultures were induced with 1 mM IPTG at 20° C. with shaking for 6 hours and lysed by sonication in 30 mM HEPES, pH 7.2, 5 mM DTT, and 5% glycerol. The soluble fraction of the lysate (100 mg/mL) was incubated with 20 μM GGDP in 30 mM HEPES, pH 7.2, 5 mM DTT, 5% glycerol, 2 mM MgCl2, and 500 μM MnCl2 overnight at 32° C.
(§1) All in vitro reactions were extracted 3× with hexane and dried over MgSO4. The reaction was further extracted twice with diethyl ether and dried over MgSO4. Thereafter, the crude lysate was suspended in 100 mM Tris, pH 8.0 containing 2.9 units/mg apyrase (a dephosphorylating agent) and 10 units/μL calf intestinal alkaline phosphatase, incubated at 30° C. for 3 hours, and extracted with diethyl ether as noted above (Croteau and Cane, 1985). The crude reaction mixtures were eluted over SiO2, concentrated, and analyzed by GC and GC/MS.
(§2) Gas chromatography spectra were obtained on a Hewlett Packard 6890 Series GC System equipped with an Rtx-5 capillary column (Restek, 30 m×0.25 mm i.d., 0.10 μm df). The following separation conditions and temperature program were employed: injector port 250° C., FID 250° C., split ratio 39:1, helium flow 20 cm/s (0.6 mL/min), 150° C. hold 5 min, increase to 250° C. (5° C./min), hold 5 min. GC/MS spectra were obtained on a Hewlett-Packard 5890A instrument with a 30-m DB-5 ms column (J&W Scientific Inc., 0.25 mm i.d., 0.10 μm df). The following separation conditions and temperature program were employed: injector port 280° C., transfer lines: 280° C., helium flow at 30 cm/s (1 mL/min) with splitless injection at 150° C. hold 3 min, increase to 250° C. (5° C./min), hold 5 min. Mass spectra (m/z 50 to 500) were obtained on a VG ZAB-HF reverse-geometry double-focusing instrument at 70 eV with an electron-impact ion source (200° C.). Accelerating voltage was set to 8 kV and the resolution was 1000 (10% valley).
The skilled artisan recognizes that lysis and assay conditions should be optimized. Examples of parameters that can be adjusted to optimize conditions include altering buffer, pH, reductant, reductant concentration, metal cofactors, cofactor concentrations, glycerol concentrations, substrate concentrations, and assay temperatures. […] Maximum soluble protein production and diterpene yield were obtained with the following conditions. Cell cultures were induced with 1 mM IPTG at 20° C. with shaking for 6 hours and lysed by sonication in 30 mM HEPES, pH 7.2, 5 mM DTT, and 5% glycerol. The soluble fraction of the lysate (100 mg/1 mL) was incubated with 20 μM GGDP in 30 mM HEPES, pH 7.2, 5 mM DTT, 5% glycerol, 2 mM MgCl2, and 500 μM MnCl2 overnight at 32° C. […]

EHY18 yeast cells = assay: in vivo expression of GbLS constructs in yeast strain EHY18 that accumulates GGDP, GC quantitation of products; format: cell-based
Description: The yeast strain of the copending application employed was EHY18 (Hart, E., 2001) which was further transformed with multiple-copy yeast expression vectors comprising an isolated and purified nucleic acid sequence of GbLS or derivatives thereof, which are described herein under control of the GAL1 inducible promoter. Yeast cells were grown to saturation in 5 mL ScD-Leu-Ura at 30° C. Cells were harvested (1300×g, 2 min, 25° C.) and resuspended in 500 μL sterile Milli-Q H2O (2×). The washed cells were resuspended in 5 mL sterile Milli-Q H2O. An aliquot of the culture (5 μL) was added to a 25 mL Corex tube containing pre-prepared 2× resin and 5 mL ScG-Leu-Ura (4% galactose) and shaken at 30° C. for 6 days. Resin was collected by filtration through a Kontes chromatography column (1.7 cm diameter) and rinsed with dI H2O until eluent was clear. The resin was incubated in 2 mL ethanol for several minutes, eluted, and repeated 2×. The combined eluents were dissolved in approximately 3 mL dI H2O and extracted (3×) with 3 mL hexane. The combined extracts were concentrated under a stream of nitrogen. GC analysis (quantitation extrapolated from 0.2 mg/mL longifolene external standard) indicated the following product profile (obtained from triplicate measurement of three cultures): 0.61±0.20 mg/L levopimaradiene, 0.04±0.01 mg/L abietadiene, 0.15±0.05 mg/L abietatriene, 0.16±0.13 mg/L (+)-copalol, and 1.79±0.90 mg/L geranylgeraniol. GC/MS fragmentation confirmed the identity of each compound.
A large scale culture (1-L) was prepared by growing the yeast cells to saturation in 5 mL ScD-Leu-Ura at 30° C. Cells were harvested (1300×g, 2 min, 25° C.) and resuspended in 500 μL sterile Milli-Q H2O (2×). The washed cells were resuspended in 5 mL sterile Milli-Q H2O. An aliquot of the culture (1 mL) was added to a 2 L flask containing 1-L ScG-Leu-Ura (4% galactose) and 88.27 g resin in 120 mL Milli-Q H2O (pre-prepared). The resin was eluted with ethanol (3×100 mL with 20 min incubation periods), which was subsequently extracted (6×) with hexane. The combined extracts were dried over magnesium sulfate, filtered, and concentrated under reduced pressure. GC analysis (quantitation extrapolated from 0.2 mg/mL longifolene external standard) indicated the following product profile (obtained from triplicate measurement): 0.29±0.04 mg/L levopimaradiene, 0.04±0.02 mg/L abietadiene, 0.13±0.04 mg/L abietatriene, 0.11±0.02 mg/L (+)-copalol, and 0.56±0.03 mg/L geranylgeraniol. GC/MS analyses confirmed the production of the above noted diterpenes, which included hydrocarbons and an alcohol.
Further optimization studies employed the Ser61 construct. Factors influencing diterpene production included induction period and concentration of galactose and resin in the inducing medium.

[2] = in vitro assay of levopimaradiene synthase constructs expressed in wild-type S. cerevisiae JBY575; format: biochemical, Saccharomyces cerevisiae; settings: wild-type S. cerevisiae JBY575, galactose 48 hours, lysate with GGDP
Description: Expression in S. cerevisiae JBY575, which represents wild-type yeast, was observed. JBY575 cells transformed with pRS426GAL inserted with the putative levopimaradiene synthase were grown in synthetic complete medium lacking uracil and supplemented with 2% glucose and 1.5% agar at 30° C. to saturation and induced with galactose for 48 hours. Cells were harvested, resuspended in lysis buffer, and mixed by vortexing over glass beads. The lysate was assayed with 60 μM GGDP in the presence and absence of 0.2% and 5% Triton X-100.
as §1, §2
The skilled artisan recognizes that lysis and assay conditions should be optimized. Examples of parameters that can be adjusted to optimize conditions include altering buffer, pH, reductant, reductant concentration, metal cofactors, cofactor concentrations, glycerol concentrations, substrate concentrations, and assay temperatures. […] Maximum soluble protein production and diterpene yield were obtained with the following conditions. Cell cultures were induced with 1 mM IPTG at 20° C. with shaking for 6 hours and lysed by sonication in 30 mM HEPES, pH 7.2, 5 mM DTT, and 5% glycerol. The soluble fraction of the lysate (100 mg/1 mL) was incubated with 20 μM GGDP in 30 mM HEPES, pH 7.2, 5 mM DTT, 5% glycerol, 2 mM MgCl2, and 500 μM MnCl2 overnight at 32° C. Yeast expression was induced with galactose at 30° C. for 48 hours and the cells were lysed and assayed according to the conditions noted.

B1: Levopimaradiene synthase: enzyme which catalyzes the synthesis of levopimaradiene from geranylgeranyl diphosphate; SEQ.ID.NO:2 (protein, listed as Ginkgo biloba)
chain: MAGVLFANLPCSLQLSPKVPFRQSTNILIPFHKRSSFGFNAQHCVRSHLRLRWNCVGIHASAAETRPDQLPQEERFVSRLNADYHPAVWKDDFIDSLTSPNSHATSKSSVDETINKRIQTLVKEIQCMFQSMGDGETNPSAYDTAWVARIPSIDGSGAPQFPQTLQWILNNQLPDGSWGEECIFLAYDRVLNTLACLLTLKIWNKGDIQVQKGVEFVRKHMEEMKDEADNHRPSGFEVVFPAMLDEAKSLGLDLPYHLPFISQIHQKRQKKLQKIPLNVLHNHQTALLYSLEGLQDVVDWQEITNLQSRDGSFLSSPASTACVFMHTQNKRCLHFLNFVLSKFGDYVPCHYPLDLFERLWAVDTVERLGIDRYFKKEIKESLDYVYRYWDAERGVGWARCNPIPDVDDTAMGLRILRLHGYNVSSDVLENFRDEKGDFFCFAGQTQIGVTDNLNLYRCSQVCFPGEKIMEEAKTFTTNHLQNALAKNNAFDKWAVKKDLPGEVEYAIKYPWHRSMPRLEARSYIEQFGSNDVWLGKTVYKMLYVSNEKYLELAKLDFNMVQALHQKETQHIVSWWRESGFNDLTFTRQRPVEMYFSVAVSMFEPEFAACRIAYAKTSCLAVILDDLYDTHGSLDDLKLFSEAVRRWDISVLDSVRDNQLKVCFLGLYNTVNGFGKDGLKEQGRDVLGYLRKVWEGLLASYTKEAEWSAAKYVPTFNEYVENAKVSIALATVVLNSIFFTGELLPDYILQQVDLRSKFLHLVSLTGRLINDTKTYQAERNRGELVSSVQCYMRENPECTEEEALSHVYGIIDNALKELNWELANPASNAPLCVRRLLFNTARVMQLFYMYRDGFGISDKEMKDHVSRTLFDPVA
metal cofactor requirement of synthase activity ([1]; MgCl2 and MnCl2 varied): independent of magnesium but required manganese cofactor for catalysis | increase in levopimaradiene yield relative to the bacterial expression system (EHY18 yeast cells; EHY18): three- to six

B2: Leu^80: Ginkgo biloba levopimaradiene synthase truncated at Arg^79-Leu^80; amino acid sequence SEQ.ID.NO:37 (protein, listed as Ginkgo biloba)
chain: MLNADYHPAVWKDDFIDSLTSPNSHATSKSSVDETINKRIQTLVKEIQCMFQSMGDGETNPSAYDTAWVARIPSIDGSGAPQFPQTLQWILNNQLPDGSWGEECIFLAYDRVLNTLACLLTLKIWNKGDIQVQKGVEFVRKHMEEMKDEADNHRPSGFEVVFPAMLDEAKSLGLDLPYHLPFISQIHQKRQKKLQKIPLNVLHNHQTALLYSLEGLQDVVDWQEITNLQSRDGSFLSSPASTACVFMHTQNKRCLHFLNFVLSKFGDYVPCHYPLDLFERLWAVDTVERLGIDRYFKKEIKESLDYVYRYWDAERGVGWARCNPIPDVDDTAMGLRILRLHGYNVSSDVLENFRDEKGDFFCFAGQTQIGVTDNLNLYRCSQVCFPGEKIMEEAKTFTTNHLQNALAKNNAFDKWAVKKDLPGEVEYAIKYPWHRSMPRLEARSYIEQFGSNDVWLGKTVYKMLYVSNEKYLELAKLDFNMVQALHQKETQHIVSWWRESGFNDLTFTRQRPVEMYFSVAVSMFEPEFAACRIAYAKTSCLAVILDDLYDTHGSLDDLKLFSEAVRRWDISVLDSVRDNQLKVCFLGLYNTVNGFGKDGLKEQGRDVLGYLRKVWEGLLASYTKEAEWSAAKYVPTFNEYVENAKVSIALATVVLNSIFFTGELLPDYILQQVDLRSKFLHLVSLTGRLINDTKTYQAERNRGELVSSVQCYMRENPECTEEEALSHVYGIIDNALKELNWELANPASNAPLCVRRLLFNTARVMQLFYMYRDGFGISDKEMKDHVSRTLFDPVA
diterpene product on yeast expression [2]: yielded levopimaradiene as the sole diterpene; also recorded: yielded levopimaradiene synthase activity | diterpene product on bacterial expression ([1]; E. coli BL21(DE3), soluble lysate fraction, 20 μM GGDP, overnight at 32° C., GC and GC/MS): produced levopimaradiene as the exclusive diterpene hydrocarbon; also recorded: provided enzymatic activity capable of cyclizing geranylgeranyl diphosphate to levopimaradiene | diterpene production relative to wild-type synthase (EHY18 yeast cells; EHY18): approximately four | diterpene products on expression in EHY18 (EHY18 yeast cells; GC, GC/MS): produced (+)-copalol, levopimaradiene, abietadiene, and abietatriene
